Experimental data from patent US8318488.

What was measured:
Assay in all cases: cell-based or functional assay
[1] = target: endothelin receptor A (ETA) (UniProt Q61614)
[2] = target: calcium/calmodulin-dependent protein phosphatase calcineurin
[3] = target: endothelin receptor B (ETB) (UniProt P48302)
Chain of endothelin receptor B (ETB) (P48302 27-442 limits assumed): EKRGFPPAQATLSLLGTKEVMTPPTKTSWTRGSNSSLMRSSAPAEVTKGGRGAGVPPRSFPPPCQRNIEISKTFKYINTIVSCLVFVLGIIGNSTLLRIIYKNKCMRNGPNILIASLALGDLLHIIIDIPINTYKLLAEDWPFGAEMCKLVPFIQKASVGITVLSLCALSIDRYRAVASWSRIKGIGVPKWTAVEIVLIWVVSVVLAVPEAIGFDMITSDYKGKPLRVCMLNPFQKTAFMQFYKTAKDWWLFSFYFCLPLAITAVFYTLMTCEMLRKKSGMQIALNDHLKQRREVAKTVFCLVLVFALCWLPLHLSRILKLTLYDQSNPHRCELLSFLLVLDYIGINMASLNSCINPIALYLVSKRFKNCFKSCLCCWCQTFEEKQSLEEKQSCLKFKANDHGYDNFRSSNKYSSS

Chain of endothelin receptor A (ETA) (Q61614 21-427 limits assumed): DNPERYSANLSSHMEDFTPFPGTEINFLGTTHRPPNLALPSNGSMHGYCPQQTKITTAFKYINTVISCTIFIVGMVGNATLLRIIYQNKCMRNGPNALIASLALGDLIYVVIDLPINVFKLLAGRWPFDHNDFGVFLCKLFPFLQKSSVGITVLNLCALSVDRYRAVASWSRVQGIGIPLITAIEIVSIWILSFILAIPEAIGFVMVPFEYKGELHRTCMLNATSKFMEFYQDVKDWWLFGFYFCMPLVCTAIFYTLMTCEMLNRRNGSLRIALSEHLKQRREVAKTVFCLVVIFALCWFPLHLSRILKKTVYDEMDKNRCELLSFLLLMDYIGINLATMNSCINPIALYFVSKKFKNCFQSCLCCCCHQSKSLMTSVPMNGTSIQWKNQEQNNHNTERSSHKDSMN

**Q.** Which results are given for BQ-123 (peptide)?
**A.** ANF expression (RT-PCR) after ET-1 stimulation, relative to ET-1 without compound (100%); BQ123 1 µM [1]: 50%; BNP expression (RT-PCR) after ET-1 stimulation, relative to ET-1 without compound (100%); BQ123 1 µM [1]: 60%

**Q.** What does the source list for Cyclosporin A (peptide)?
**A.** ANF expression (RT-PCR) after ET-1 stimulation, relative to ET-1 without compound (100%); cyclosporin A 1 µg/ml [2]: 70%; ANF expression (RT-PCR) after PE stimulation, relative to PE without compound (100%); cyclosporin A 1 µg/ml [2]: 70%; BNP expression (RT-PCR) after ET-1 stimulation, relative to ET-1 without compound (100%); cyclosporin A 1 µg/ml [2]: 50%; BNP expression (RT-PCR) after PE stimulation, relative to PE without compound (100%); cyclosporin A 1 µg/ml [2]: 70%

**Q.** BQ-788 (peptide) was tested. Which ANF expression (RT-PCR) after ET-1 stimulation, relative to ET-1 without compound (100%); BQ788 1 µM [3] did it give?
**A.** 70%

**Q.** And the BNP expression (RT-PCR) after ET-1 stimulation, relative to ET-1 without compound (100%); BQ788 1 µM [3]?
**A.** 70%
